The target in this series is recombinant PD-L1, His tagged (human, UniProt Q9NZQ7 19-239). As to the kind of experiment: pull-down.
Chain of recombinant PD-L1, His tagged (Q9NZQ7 19-239): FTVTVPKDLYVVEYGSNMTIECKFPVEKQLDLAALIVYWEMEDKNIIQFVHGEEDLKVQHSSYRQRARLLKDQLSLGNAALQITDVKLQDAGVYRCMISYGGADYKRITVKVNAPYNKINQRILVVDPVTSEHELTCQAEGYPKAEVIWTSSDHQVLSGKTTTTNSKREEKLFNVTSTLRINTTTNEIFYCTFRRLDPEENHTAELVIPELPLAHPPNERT

B1: XQ-P3 biotinylated (ssDNA)
DNA: ACCGACCGTGCTGGACTCATCTCGCTTTTTTCACGGTCCACACTACTATGAGCGAGCCTGGCG
modifications: biotin
Turning to B1, the binding result is on record as “binds”.

For the origin of these results see PMC7331476.
